In this data set the test system is Cc1cc(=O)oc2cc(NC(=O)[C@H](CCCNC(=N)N)NC(=O)[C@@H]3CCCN3C(=O)CNC(=O)OCc3ccccc3)ccc12. The experiment in a line: Kallikrein inhibition assay utilizing a quenched AMC peptide substrate (FLINT, kinetic read). The format is biochemical, human. The settings on record: other: peptide substrate for kallikrein; titration data fit to the Michaelis-Menten equation; pH 7.5.

human plasma kallikrein (Homo sapiens), sequence (chain, as listed by the source): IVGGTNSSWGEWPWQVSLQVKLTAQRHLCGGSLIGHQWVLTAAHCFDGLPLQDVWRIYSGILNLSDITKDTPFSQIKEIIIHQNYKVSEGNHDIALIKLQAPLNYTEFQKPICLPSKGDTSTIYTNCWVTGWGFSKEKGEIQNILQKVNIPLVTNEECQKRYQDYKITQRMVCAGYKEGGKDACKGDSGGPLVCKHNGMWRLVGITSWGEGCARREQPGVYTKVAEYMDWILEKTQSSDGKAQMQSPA

Broadly, the Km is the concentration of substrate that gives half-maximal velocity. One may read the kcat as the number of substrate molecules converted per active site and unit of time at saturation. Take human plasma kallikrein (Homo sapiens): the Km came to 40 µM, the kcat is 0.76 s⁻¹ and the kcat/Km amounted to 18932 M-is-1.

Values taken from patent US20230183233A1, “Bicyclic Pyridin-2-one and pyrimidin-4-one Derivatives Useful As a Factor XIa Inhibitors” (Janssen Pharmaceutica NV, priority 2021, published 2023).
